Data from patent US20210047398A1, “ASPROSIN, A FAST-INDUCED GLUCOGENIC PROTEIN HORMONE” (Baylor College of Medicine, priority 2016, published 2021).

What was measured:
[1] = Plasma asprosin, glucose, insulin and hormones in mice after asprosin gain-of-function; assay type: in vivo
Description: Animals. […] MgR heterozygous mice were obtained from Jackson labs, and bred to obtain male MgR homozygous mice and WT littermates. 5-week-old male Ob/Ob mice were obtained from Jackson labs. […] For diet induced obesity studies, mice were placed on the adjusted calories diet providing 60% of calories from fat by Harlan-Teklad for 12 weeks. […] Mice were exposed to 30 μg recombinant His-tagged asprosin or recombinant Green Fluorescent Protein (GFP) daily for 10 days via subcutaneous injection. Mice were sacrificed and plasma and various organs were isolated 10 days after virus or peptide injection. For single dose injections, the same protocol was followed as that for daily injections, followed by collection of plasma at the indicated times via tail bleeds for insulin and glucose measurement. Insulin and glucose tolerance tests (ITT and GTT) were performed using standard procedures. […] For immunologic sequestration experiments, mice were injected intra-peritoneally with a 500 μg dose in saline of a custom-built (Thermo Scientific Inc.) anti-asprosin mouse monoclonal antibody directed against amino acids 106-134 (human profibrillin amino acids 2837-2865) or an equivalent dose of isotype matched IgG (Southern Biotech, Inc.). […] The Baylor College of Medicine Institutional Animal Care and Utilization Committee approved all experiments.
Plasma metabolic parameters. Human plasma insulin was measured using a human insulin ELISA kit by Abcam. Mouse plasma insulin was measured using a mouse insulin ELISA kit by Millipore. Mouse plasma glucagon, epinephrine, norepinephrine and corticosterone were measured by the Vanderbilt University Hormone Assay & Analytical Services Core.

AgRP neurons = assay: Whole-cell patch clamp recordings on AgRP neurons; assay type: cell-based, mice
Description: Electrophysiology—Whole-cell patch clamp recordings were performed on identified AgRP neurons or POMC neurons in the brain slices containing the arcuate nucleus of the hypothalamus (ARH). In particular, to identify AgRP neurons, the inventors crossed Rosa26-tdTOMATO allele onto the regular AgRP-Cre mice (Tong et al., 2008) to generate AgRP-Cre/Rosa26-tdTOMATO mice, which express TOMATO selectively in AgRP/NPY neurons. In some studies, the inventors crossed NPY-GFP mice (Pinto et al., 2004) with NPS mice to generate NPY-GFP mice with or without the NPS mutation, and GFP-labelled neurons in the arcuate nucleus were recorded. In order to record POMC neurons, the inventors crossed Rosa26-tdTOMATO allele onto the POMC-CreERT2 mice (Berglund et al., 2013) to generate POMC-CreERT2/Rosa26-tdTOMATO mice, which express TOMATO selectively in mature POMC neurons upon tamoxifen induction (0.2 mg/g, i.p. 6 weeks of age). In some studies, the inventors also crossed the AgRP-DTR allele onto POMC-GFP mice, and these mice received DT or saline injections (described above) to generate mice with or without AgRP neurons ablated.
Six to twelve-week old mice were deeply anesthetized with isoflurane and transcardially perfused with a modified ice-cold sucrose-based cutting solution (pH 7.3) containing 10 mM NaCl, 25 mM NaHCO3, 195 mM Sucrose, 5 mM Glucose, 2.5 mM KCl, 1.25 mM NaH2PO4, 2 mM Na-Pyruvate, 0.5 mM CaCl2, and 7 mM MgCl2, bubbled continuously with 95% O2 and 5% CO2 (Ren et al., 2012). The mice were then decapitated, and the entire brain was removed and immediately submerged in the cutting solution. Slices (250 μm) were cut with a Microm HM 650V vibratome (Thermo Scientific). Three brain slices containing the arcuate nucleus were obtained for each animal (Bregma −2.06 mm to −1.46 mm; Interaural 1.74 mm to 2.34 mm), and recordings were made at levels throughout this brain region. The slices were recovered for 1 h at 34° C. and then maintained at room temperature in artificial cerebrospinal fluid (aCSF, pH 7.3) containing 126 mM NaCl, 2.5 mM KCl, 2.4 mM CaCl2, 1.2 mM NaH2PO4, 1.2 mM MgCl2, 11.1 mM glucose, and 21.4 mM NaHCO3) saturated with 95% O2 and 5% CO2 before recording.
Slices were transferred to a recording chamber and allowed to equilibrate for at least 10 min before recording. The slices were superfused at 34° C. in oxygenated aCSF at a flow rate of 1.8-2 ml/min. GFP or TOMATO-labeled neurons in the ARH were visualized using epifluorescence and IR-DIC imaging on an upright microscope (Eclipse FN-1, Nikon) equipped with a moveable stage (MP-285, Sutter Instrument). Patch pipettes with resistances of 3-5 MΩ were filled with intracellular solution (pH 7.3) containing 128 mM K-Gluconate, 10 mM KCl, 10 mM HEPES, 0.1 mM EGTA, 2 mM MgCl2, 0.05 mM Na-GTP and 0.05 mM Mg-ATP. Recordings were made using a MultiClamp 700B amplifier (Axon Instrument), sampled using Digidata 1440A and analyzed offline with pClamp 10.3 software (Axon Instruments). Series resistance was monitored during the recording, and the values were generally <10 MΩ and were not compensated. The liquid junction potential was +12.5 mV, and was corrected after the experiment. Data were excluded if the series resistance increased dramatically during the experiment or without overshoot for action potential. Currents were amplified, filtered at 1 kHz, and digitized at 20 kHz. Current clamp was engaged to test neural firing frequency and resting membrane potential (RM) at the baseline and puff delivered recombinant Asprosin (500 ms at various concentrations indicated in the figures). For the asprosin antibody pre-incubation experiment, asprosin and anti-asprosin mAB or IgG were gently mixed at a 1:100 ratio, and then kept on ice for one hour before recording. After AgRP or POMC neuron response to asprosin alone was confirmed, the mixture of recombinant asprosin and anti-asprosin mAB or IgG was perfused to treat the AgRP or POMC neurons for 4 minutes. […]

[2] = rat, in vivo, iv
[3] = 2 hours after single 30 μg dose

B1: recombinant asprosin: 146 amino acid E. coli expressed fusion protein: 6 amino acid N-terminal His tag and 140 amino acid wild type asprosin (FBN1 2732-2871) (protein)
chain: HHHHHHSTNETDASNIEDQSETEANVSLASWDVEKTAIFAFNISHVSNKVRILELLPALTTLTNHNRYLIESGNEDGFFKINQKEGISYLHFTKKKPVAGTYSLQISSTPLYKKKELNQLEDKYDKDYLSGELGDNLKMKIQVLLH
plasma levels of catabolic hormones (glucagon, catecholamines, glucocorticoids) ([1]; 15-20 minutes after single 30 μg dose): no effect | plasma insulin ([1]; 15 minute time-point after single dose, 2-hour fast): compensatory hyperinsulinemia | glucose uptake in peripheral organs in glucose- and insulin-tolerance tests [1, 3]: little evidence of altered glucose uptake | peak glucose levels in glucose- and insulin-tolerance tests [1, 3]: altered peak glucose levels | glucose and insulin levels ([1]; 10 days of exposure, 2-hour fasted mice): elevated | blood glucose levels after a single dose ([1]; single 30 μg subcutaneous dose, 2-hour preceding fast): immediate spike | time to normalized blood glucose levels post injection ([1]; single dose, 2-hour fast): ≤ 60 min | rate of the blood glucose spike ([1]; single dose, overnight preceding fast, otherwise similar results): somewhat slower | insulin deficit of MgR mice ([1]; single subcutaneous administration, overnight fasted MgR mice): sufficient to completely rescue the insulin deficit | miniature excitatory post-synaptic current (mEPSC) of AgRP neurons (AgRP neurons): increased the amplitude but not frequency | proportion of AgRP neurons asprosin-responsive (AgRP neurons): about 50% | dose-dependency of AgRP neuron activation (firing frequency, membrane potential) (AgRP neurons; 0.01-100 nM, intact slices): dose-dependent activation | asprosin-mediated activation with synaptic inputs pharmacologically inhibited (AgRP neurons; TTX or TTX + AP-5 + CNQX + bicuculline): no decrease in asprosin-mediated activation | EC50 for AgRP neuron activation (AgRP neurons; firing frequency and membrane potential): nanomolar to subnanomolar range | AgRP neuron firing frequency and membrane potential (AgRP neurons; recombinant asprosin puff): acutely induced their activation | elevation in CSF asprosin [2]: 6 fold | his-tag signal in the CSF [2]: strong his-tag signal
